Positions of bridges follow the written chain, without caps; N, C: chain ends. No end group written: not given here.
B1: … peptide (SEQ ID NO:41) (peptide)
peptide: PCARHLGELVWCT
modifications: disulfide 2-12 (inferred)
B2: … peptide (SEQ ID NO:3) (peptide)
peptide: DCAFHLGELVWCT
modifications: cyclized by a disulfide bond between the two cysteine residues
B3: … peptide (SEQ ID NO:5) (peptide)
peptide: RCARHLGELVWCT
modifications: disulfide 2-12 (inferred)
B4: … peptide (SEQ ID NO:40) (peptide)
peptide: DCAAHLGELAACT
modifications: cyclized by a disulfide bond between the two cysteine residues
B5: … peptide (printed in Table 8 with SEQ ID NO:14) (peptide)
peptide: APPDCARHLGELVWCT
modifications: cyclized by a disulfide bond between the two cysteine residues
B6: … peptide (SEQ ID NO:42) (peptide)
peptide: DCAWHLGELAACT
modifications: cyclized by a disulfide bond between the two cysteine residues
B7: … peptide (SEQ ID NO:4) (peptide)
peptide: DCARHLGELVWCT
modifications: disulfide 2-12 (inferred)

What was measured:
[1] = biological target: peroxidase-anti-peroxidase (PAP) immune complex (preformed immune complex of peroxidase and anti-peroxidase IgG); assay: reverse ELISA, competition: soluble histone pre-incubated with rabbit PAP, then histone-coated plate; lower = more inhibition
[2] = biological target: Histone (Sigma); assay: reverse ELISA: rabbit PAP on histone-coated plate, no inhibitor
[3] = biological target: FcγIIb; assay: reverse ELISA: rabbit PAP on FcγIIb-coated plate, no inhibitor
FcγIIb, sequence (P31994 43-217): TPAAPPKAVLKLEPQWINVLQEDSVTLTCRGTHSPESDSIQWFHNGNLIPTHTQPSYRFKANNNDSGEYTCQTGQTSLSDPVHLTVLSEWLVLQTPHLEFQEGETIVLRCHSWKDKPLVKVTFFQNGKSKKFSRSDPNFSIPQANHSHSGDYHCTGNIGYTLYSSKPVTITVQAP

[4] = biological target: human C1q (human) (UniProt P02745); assay: reverse ELISA: rabbit PAP on C1q-coated plate, no inhibitor
human C1q (human), sequence (P02745 23-245 limits assumed, chain 1 of 3): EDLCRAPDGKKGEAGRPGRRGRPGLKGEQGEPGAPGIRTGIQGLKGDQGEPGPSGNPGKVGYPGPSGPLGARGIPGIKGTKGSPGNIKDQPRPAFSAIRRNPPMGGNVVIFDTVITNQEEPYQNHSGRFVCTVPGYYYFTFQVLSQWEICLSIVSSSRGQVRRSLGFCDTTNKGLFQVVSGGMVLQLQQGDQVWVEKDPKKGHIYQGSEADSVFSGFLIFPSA
human C1q (human), sequence (P02746 28-253 limits assumed, chain 2 of 3, further chain): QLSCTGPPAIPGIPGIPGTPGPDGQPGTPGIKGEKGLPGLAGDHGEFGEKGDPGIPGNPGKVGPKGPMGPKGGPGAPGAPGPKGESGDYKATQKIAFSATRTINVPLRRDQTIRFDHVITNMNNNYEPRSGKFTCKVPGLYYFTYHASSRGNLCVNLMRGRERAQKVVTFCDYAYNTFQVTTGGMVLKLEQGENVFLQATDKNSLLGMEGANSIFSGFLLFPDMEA
human C1q (human), sequence (P02747 29-245 limits assumed, chain 3 of 3, further chain): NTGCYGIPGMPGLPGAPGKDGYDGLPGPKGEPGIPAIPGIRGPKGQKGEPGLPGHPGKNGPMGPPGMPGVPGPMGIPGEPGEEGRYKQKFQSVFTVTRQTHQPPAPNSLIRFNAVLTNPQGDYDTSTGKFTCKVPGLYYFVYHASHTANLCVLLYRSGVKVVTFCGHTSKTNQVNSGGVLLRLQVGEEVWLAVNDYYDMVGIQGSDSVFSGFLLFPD

[5] = biological target: FcγIIa; assay: reverse ELISA: PAP on FcγIIa-coated plate, no inhibitor
FcγIIa, sequence (P12318 34-217): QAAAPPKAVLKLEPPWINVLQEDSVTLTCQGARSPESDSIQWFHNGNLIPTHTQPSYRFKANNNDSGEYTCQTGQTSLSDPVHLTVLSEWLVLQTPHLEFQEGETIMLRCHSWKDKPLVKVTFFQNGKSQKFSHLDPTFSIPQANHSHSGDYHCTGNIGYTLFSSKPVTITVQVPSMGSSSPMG

[6] = biological target: whole human IgG4; assay: reverse ELISA: immune complexes on IgG4-coated plate, no inhibitor
[7] = biological target: Histone (Sigma); assay: reverse ELISA: binding of histones to IgG PAP immune complexes, no inhibitor
[8] = biological target: FcγIIa; assay: reverse ELISA: rabbit PAP on FcγIIa-coated plate, no inhibitor
[9] = biological target: FcγIII; assay: reverse ELISA: rabbit PAP on FcγIII-coated plate, no inhibitor
[10] = biological target: myelin basic protein (MBP, Sigma); assay: reverse ELISA: binding of MBP to IgG PAP immune complexes, no inhibitor
[11] = biological target: FcγIIb; assay: reverse ELISA: PAP on FcγIIb-coated plate, no inhibitor
[12] = biological target: myelin basic protein (MBP, Sigma); assay: reverse ELISA: rabbit PAP on MBP-coated plate, no inhibitor
[13] = biological target: FcγIII; assay: reverse ELISA: PAP on FcγIII-coated plate, no inhibitor
[14] = biological target: human C1q (human) (UniProt P02745); assay: reverse ELISA: PAP on C1q-coated plate, no inhibitor
[15] = biological target: peroxidase-anti-peroxidase (PAP) immune complex (preformed immune complex of peroxidase and anti-peroxidase IgG); assay: reverse ELISA, competition: soluble MBP pre-incubated with rabbit PAP, then MBP-coated plate; lower = more inhibition
[16] = biological target: peroxidase-anti-peroxidase (PAP) immune complex (preformed immune complex of peroxidase and anti-peroxidase IgG); assay: reverse ELISA, competition: pre-incubated with PAP, then FcγIII-coated plate (competitor: FcγIII); lower = more inhibition
[17] = biological target: peroxidase-anti-peroxidase (PAP) immune complex (preformed immune complex of peroxidase and anti-peroxidase IgG); assay: reverse ELISA, competition: pre-incubated with PAP, then FcγIIa-coated plate (competitor: FcγIIa); lower = more inhibition
[18] = biological target: peroxidase-anti-peroxidase (PAP) immune complex (preformed immune complex of peroxidase and anti-peroxidase IgG); assay: reverse ELISA, competition: pre-incubated with PAP, then C1q-coated plate (competitor: C1q); OD = PAP bound, lower = more inhibition
[19] = biological target: peroxidase-anti-peroxidase (PAP) immune complex (preformed immune complex of peroxidase and anti-peroxidase IgG); assay: reverse ELISA, competition: peptide with immune complexes, IgG4-coated plate (competitor: IgG4); lower = more inhibition
[20] = biological target: human monomeric IgG (Research Diagnostics); assay: RF test, competition: peptide pre-incubated with human monomeric IgG, washed, then 200 I.U. RF (competitor); OD = RF bound, lower = more inhibition
[21] = biological target: peroxidase-anti-peroxidase (PAP) immune complex (preformed immune complex of peroxidase and anti-peroxidase IgG); assay: reverse ELISA, competition: pre-incubated with rabbit PAP, then MBP-coated plate (competitor: MBP); lower = more inhibition
[22] = biological target: peroxidase-anti-peroxidase (PAP) immune complex (preformed immune complex of peroxidase and anti-peroxidase IgG); assay: reverse ELISA, competition: pre-incubated with PAP, then RF-coated plate (competitor: RF); lower = more inhibition
[23] = biological target: peroxidase-anti-peroxidase (PAP) immune complex (preformed immune complex of peroxidase and anti-peroxidase IgG); assay: reverse ELISA, competition: pre-incubated with rabbit PAP, then histone-coated plate (competitor: histone); lower = more inhibition
[24] = biological target: peroxidase-anti-peroxidase (PAP) immune complex (preformed immune complex of peroxidase and anti-peroxidase IgG); assay: reverse ELISA, competition: pre-incubated with PAP, then FcγIIb-coated plate (competitor: FcγIIb); lower = more inhibition
[25] = biological target: peroxidase-anti-peroxidase (PAP) immune complex (preformed immune complex of peroxidase and anti-peroxidase IgG); assay: reverse ELISA, competition: pre-incubated with rabbit PAP, then FcγIIb-coated plate (competitor: FcγIIb); lower = more inhibition
[26] = biological target: human monomeric IgG (Research Diagnostics); assay: RF test, competition: peptide pre-incubated 1 hour with human monomeric IgG, washed, then 200 I.U. RF (competitor); OD = RF bound, lower = more inhibition
[27] = biological target: peroxidase-anti-peroxidase (PAP) immune complex (preformed immune complex of peroxidase and anti-peroxidase IgG); assay: reverse ELISA, competition: pre-incubated with rabbit PAP, then FcγIII-coated plate (competitor: FcγIII); lower = more inhibition
[28] = biological target: peroxidase-anti-peroxidase (PAP) immune complex (preformed immune complex of peroxidase and anti-peroxidase IgG); assay: reverse ELISA, competition: pre-incubated with rabbit PAP, then C1q-coated plate (competitor: C1q); lower = more inhibition
[29] = biological target: peroxidase-anti-peroxidase (PAP) immune complex (preformed immune complex of peroxidase and anti-peroxidase IgG); assay: reverse ELISA, competition: pre-incubated with rabbit PAP, then FcγIIa-coated plate (competitor: FcγIIa); lower = more inhibition
[30] = biological target: peroxidase-anti-peroxidase (PAP) immune complex (preformed immune complex of peroxidase and anti-peroxidase IgG); assay: reverse ELISA, competition: pre-incubated with rabbit PAP, then RF-coated plate (competitor: RF); lower = more inhibition

Row | OD 450 nm [16] | OD 450 nm [17] | OD 405 nm [18] | OD 405 nm [19] | OD 405 nm [20] | OD 405 nm [21] | OD 405 nm [22] | OD 405 nm [23] | OD 450 nm [24] | also measured | Molecule
1 | – | – | – | – | – | – | – | – | – | OD 405 nm [1]: 0.057 OD | Histone (Sigma)
2 | – | – | – | – | – | – | – | – | – | OD 405 nm [2]: 1.27 OD; OD 405 nm [3]: 1.39 OD; OD 405 nm [4]: 2.35 OD; OD 450 nm [5]: 3.6 OD; OD 405 nm [6]: 0.716 OD; OD 405 nm [7]: 2.11 OD; OD 405 nm [8]: 1.6 OD; OD 405 nm [9]: 1.59 OD; OD 405 nm [10]: 2.34 OD; OD 450 nm [11]: 3.6 OD; OD 405 nm [12]: 1.03 OD; OD 450 nm [13]: 3.6 OD; OD 405 nm [14]: 0.467 OD | peroxidase-anti-peroxidase (PAP) immune complex (preformed immune complex of peroxidase and anti-peroxidase IgG)
3 | – | – | – | – | – | – | – | – | – | OD 405 nm [15]: 0.139 OD | myelin basic protein (MBP, Sigma)
4 | 1.6 OD | 1.15 OD | 0.205 OD | 0.129 OD | 1.32 OD | 0.489 OD | 0.106 OD | 0.444 OD | 1.21 OD | – | B1
5 | – | – | – | – | – | – | – | – | – | OD 405 nm [25]: 0.51 OD; OD 405 nm [26]: 0.962 OD; OD 405 nm [27]: 0.81 OD; OD 405 nm [28]: 0.859 OD; OD 405 nm [29]: 0.66 OD; OD 405 nm [30]: 0.267 OD | B2
6 | 3.5 OD | 3.4 OD | 0.247 OD | 0.191 OD | 1.31 OD | 0.569 OD | 0.152 OD | 0.359 OD | 3.28 OD | – | B3
7 | 2.41 OD | 2.43 OD | 0.458 OD | – | 1.42 OD | – | – | – | 2.26 OD | – | B4
8 | – | – | – | 0.107 OD | – | – | – | – | – | – | B5
9 | 1.34 OD | 1.48 OD | – | 0.557 OD | 1.4 OD | 0.706 OD | 0.622 OD | 0.729 OD | 1.07 OD | – | B6
10 | 2.53 OD | 2.54 OD | 0.193 OD | 0.096 OD | 1.23 OD | 0.473 OD | 0.109 OD | 0.363 OD | 1.95 OD | – | B7
